Test results: paper PMC9783754 (International Journal of Molecular Sciences, 2022)
Residue numbers refer to the chain shown, from its start.

Key:
[1] = biological target: T1, Recombinant human sTNF (soluble form of tumor necrosis factor) (human, UniProt P01375 77-233); experiment: SPR; ligand (50 μg/mL sTNF or TNF-β) immobilised on a ProteOn GLH chip by amine coupling; chip flushed with running buffer for two days and several times with 10 mM glycine pH 3.3 to dissociate sTNF multimers (monomeric sTNF); Ca2+-loaded S100 protein as analyte, 10 nM–2 µM; 25 °C; 10 mM HEPES, 150 mM NaCl, 1 mM CaCl2, 0.05% TWEEN 20, pH 7.4; heterogeneous ligand model; conditions: both partners purified
T1 construct: additional N-terminal methionine, stated in words; tumor necrosis factor, human, soluble form (157 residues), residues 77-233 of UniProt entry P01375; Monomeric on the SPR chip after long flushing and glycine pH 3.3 washes; multimeric in solution in the fluorimetric titrations and cross-linking; also called TNF-α; TNF ligand superfamily member 2; source: bought: Prospec-Tany Technogene (catalog # …)

[2] = biological target: the molecule itself; experiment: cross-linking; 4 µM sTNF and/or S100 protein (sTNF to S100 1:0, 0:1, 1:0.5, 1:1, 1:2), 20 mM EDAC and 5 mM sulfo-NHS, 25 °C, 1.5 h; 10 mM HEPES, 150 mM NaCl, pH 7.4 with 1 mM CaCl2; SDS-PAGE with silver staining
[3] = biological target: T1, Recombinant human sTNF (soluble form of …); experiment: other fluorescence titration; 280 nM (S100A11) or 0.5 µM (S100A12) multimeric sTNF titrated by Ca2+-bound S100 protein; Trp fluorescence of sTNF, excitation 295/298 nm, intensity at 325 nm; 25 °C; 10 mM HEPES-NaOH, 150 mM NaCl, 1 mM CaCl2, pH 7.4; single site binding model; apparent; conditions: both partners purified
[4] = biological target: T1, Recombinant human sTNF (soluble form of …); experiment: SPR; ligand (50 μg/mL sTNF or TNF-β) immobilised on a ProteOn GLH chip by amine coupling; chip flushed with running buffer for two days and several times with 10 mM glycine pH 3.3 to dissociate sTNF multimers (monomeric sTNF); Ca2+-loaded S100 protein as analyte, 10 nM–2 µM; 25 °C; 10 mM HEPES, 150 mM NaCl, 1 mM CaCl2, 0.05% TWEEN 20, pH 7.4; heterogeneous ligand model; conditions: both partners purified; remark: listed apart in the source

T1 sequence (P01375 other isoform, or with tags, fused parts or gaps): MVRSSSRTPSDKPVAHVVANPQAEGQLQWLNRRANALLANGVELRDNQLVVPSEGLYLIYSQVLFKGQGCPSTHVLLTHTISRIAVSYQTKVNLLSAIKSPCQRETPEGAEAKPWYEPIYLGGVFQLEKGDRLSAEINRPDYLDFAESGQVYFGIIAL

B1: Recombinant human S100A4 (natural protein)
chain: not shown
notes: S100A4, human; Ca2+-loaded in the assay; source: E. coli, purified as previously described
[1]
  Kd: > 100000 nM

B2: Recombinant human S100A14 (natural protein, UniProt Q9HCY8 1-104, looked up)
chain: MGQCRSANAEDAQEFSDVERAIETLIKNFHQYSVEGGKETLTPSELRDLVTQQLPHLMPSNCGLEEKIANLGSCNDSKLEFRSFWELIGEAAKSVKLERPVRGH
notes: S100A14, human; Ca2+-loaded in the assay; source: E. coli, purified as previously described
[1]
  Kd: > 100000 nM

B3: Recombinant human S100A9 (natural protein, UniProt P06702 1-114, looked up)
chain: MTCKMSQLERNIETIINTFHQYSVKLGHPDTLNQGEFKELVRKDLQNFLKKENKNEKVIEHIMEDLDTNADKQLSFEEFIMLMARLTWASHEKMHEGDEGPGHHHKPGLGEGTP
notes: S100A9, human; Ca2+-loaded in the assay; source: E. coli, purified as previously described
[1]
  Kd: > 100000 nM

B4: Recombinant human S100A2 (natural protein)
chain: not shown
notes: S100A2, human; Ca2+-loaded in the assay; source: E. coli, purified as previously described
[1]
  Kd: > 100000 nM

B5: Recombinant human S100A5 (natural protein, UniProt P33763 1-92, looked up)
chain: METPLEKALTTMVTTFHKYSGREGSKLTLSRKELKELIKKELCLGEMKESSIDDLMKSLDKNSDQEIDFKEYSVFLTMLCMAYNDFFLEDNK
notes: S100A5, human; Ca2+-loaded in the assay; source: E. coli, purified as previously described
[1]
  Kd: > 100000 nM

B6: Recombinant human S100A3 (natural protein, UniProt P33764 1-101, looked up)
chain: MARPLEQAVAAIVCTFQEYAGRCGDKYKLCQAELKELLQKELATWTPTEFRECDYNKFMSVLDTNKDCEVDFVEYVRSLACLCLYCHEYFKDCPSEPPCSQ
notes: S100A3, human; Ca2+-loaded in the assay; source: E. coli, purified as previously described
[1]
  Kd: > 100000 nM

B7: Recombinant human S100A11 (natural protein, UniProt P31949 1-105, looked up)
chain: MAKISSPTETERCIESLIAVFQKYAGKDGYNYTLSKTEFLSFMNTELAAFTKNQKDPGVLDRMMKKLDTNSDGQLDFSEFLNLIGGLAMACHDSFLKAVPSQKRT
notes: S100A11, human, UniProt ID P31949 (printed in the methods of the database search); mainly dimeric by cross-linking at 4 µM; source: E. coli, purified as previously described
[2]
  stoichiometry N: 2
[3]
  Kd: 104 ± 23 nM
  stoichiometry N: 1
[4]
  Kd1 (KD, ligand population 1): 28 nM
  Kd2 (KD, ligand population 2): 695 nM
  kd1 (koff, ligand population 1): 0.00018 s⁻¹
  kd2 (koff, ligand population 2): 0.0084 s⁻¹

B8: Recombinant human S100A12 (natural protein, UniProt P80511 1-92, looked up)
chain: MTKLEEHLEGIVNIFHQYSVRKGHFDTLSKGELKQLLTKELANTIKNIKDKAVIDEIFQGLDANQDEQVDFQEFISLVAIALKAAHYHTHKE
notes: S100A12, human, UniProt ID P80511 (printed in the methods of the database search); monomer and dimer by cross-linking at 4 µM; source: E. coli, purified as previously described
[2]
  stoichiometry N: 2
[3]
  Kd: 348 ± 50 nM
  stoichiometry N: 1
[4]
  Kd1 (KD, ligand population 1): 2.3 nM
  Kd2 (KD, ligand population 2): 8.4 nM
  kd1 (koff, ligand population 1): 0.0018 s⁻¹
  kd2 (koff, ligand population 2): 0.0023 s⁻¹

B9: Recombinant human S100A13 (natural protein, UniProt Q99584 1-98, looked up)
chain: MAAEPLTELEESIETVVTTFFTFARQEGRKDSLSVNEFKELVTQQLPHLLKDVGSLDEKMKSLDVNQDSELKFNEYWRLIGELAKEIRKKKDLKIRKK
notes: S100A13, human, UniProt ID Q99584 (printed in the methods of the database search); source: E. coli, purified as previously described
[4]
  Kd1 (KD, ligand population 1): 2.4 nM
  Kd2 (KD, ligand population 2): 4.3 nM
  kd1 (koff, ligand population 1): 0.0009 s⁻¹
  kd2 (koff, ligand population 2): 0.0073 s⁻¹

B10: Recombinant human S100B (natural protein, UniProt P04271 1-92, looked up)
chain: MSELEKAMVALIDVFHQYSGREGDKHKLKKSELKELINNELSHFLEEIKEQEVVDKVMETLDNDGDGECDFQEFMAFVAMVTTACHEFFEHE
notes: S100B, human; Ca2+-loaded in the assay; source: E. coli, purified as previously described
[1]
  Kd: > 100000 nM

B11: Recombinant human S100P (natural protein, UniProt P25815 1-95, looked up)
chain: MTELETAMGMIIDVFSRYSGSEGSTQTLTKGELKVLMEKELPGFLQSGKDKDAVDKLLKDLDANGDAQVDFSEFIVFVAAITSACHKYFEKAGLK
notes: S100P, human; Ca2+-loaded in the assay; source: E. coli, purified as previously described
[1]
  Kd: > 100000 nM

B12: Recombinant human S100A7 (natural protein, UniProt P31151 1-101, looked up)
chain: MSNTQAERSIIGMIDMFHKYTRRDDKIEKPSLLTMMKENFPNFLSACDKKGTNYLADVFEKKDKNEDKKIDFSEFLSLLGDIATDYHKQSHGAAPCSGGSQ
notes: S100A7, human; Ca2+-loaded in the assay; source: E. coli, purified as previously described
[1]
  Kd: > 100000 nM

B13: Recombinant human S100A15 (natural protein, UniProt Q86SG5 1-101, looked up)
chain: B12 chain with R22G, D25G, T52I, N53H, D57T, T84A
notes: Ca2+-loaded in the assay; source: E. coli, purified as previously described
[1]
  Kd: > 100000 nM

B14: Recombinant human S100A16 (natural protein, UniProt Q96FQ6 1-103, looked up)
chain: MSDCYTELEKAVIVLVENFYKYVSKYSLVKNKISKSSFREMLQKELNHMLSDTGNRKAADKLIQNLDANHDGRISFDEYWTLIGGITGPIAKLIHEQEQQSSS
notes: S100A16, human; Ca2+-loaded in the assay; source: E. coli, purified as previously described
[1]
  Kd: > 100000 nM

B15: Recombinant human S100A8 (natural protein, UniProt P05109 1-93, looked up)
chain: MLTELEKALNSIIDVYHKYSLIKGNFHAVYRDDLKKLLETECPQYIRKKGADVWFKELDINTDGAVNFQEFLILVIKMGVAAHKKSHEESHKE
notes: S100A8, human; Ca2+-loaded in the assay; source: E. coli, purified as previously described
[1]
  Kd: > 100000 nM
